# Assay results: patent publication US20140087995A1 (published 2014)
# Read-outs that look alike come from different tables or passages of the source. Numbered stars: 1 amine (or outer) side, 2 acyl side, 3 side chain; on linkers, the order of the positions; unused ones are H or OH. Bridge positions count the residues as written; N and C are the ends. Side chains are listed from the residue outwards. Ends that are not written are not given here. * marks the point of attachment. C20 diacid = O=C(O)CCCCCCCCCCCCCCCCCCC(=O)*; γGlu = O=C(O)[C@H](CCC(=O)[*:2])N[*:1]
# Key:
# [1] = target: T1, human amylin receptor (amylin 3(a) receptor: human calcitonin receptor plus RAMP-3) (human, UniProt P30988 25-474; O60896 24-148); assay: SPA competition, displacement of 125I-rat amylin from membranes of BHK cells with human calcitonin receptor + RAMP-3 (Assay V)
# T1 construct: whole, on cells; functional assay used the whole cells; also called hAmylin-R; hAmylinR
# T1 sequence (looked up) 1: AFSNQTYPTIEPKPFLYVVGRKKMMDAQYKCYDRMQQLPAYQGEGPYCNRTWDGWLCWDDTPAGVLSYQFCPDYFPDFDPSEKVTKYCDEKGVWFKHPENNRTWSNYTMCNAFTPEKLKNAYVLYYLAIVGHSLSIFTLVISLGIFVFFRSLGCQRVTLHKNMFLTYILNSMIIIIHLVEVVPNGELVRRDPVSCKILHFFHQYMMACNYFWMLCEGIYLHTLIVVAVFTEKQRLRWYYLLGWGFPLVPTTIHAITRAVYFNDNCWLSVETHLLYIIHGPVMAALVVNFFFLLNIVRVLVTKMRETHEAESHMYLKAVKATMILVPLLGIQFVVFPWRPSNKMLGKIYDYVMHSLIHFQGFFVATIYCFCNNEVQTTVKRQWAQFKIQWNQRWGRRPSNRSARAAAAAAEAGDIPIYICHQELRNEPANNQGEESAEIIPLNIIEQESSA
# T1 sequence (looked up) 2: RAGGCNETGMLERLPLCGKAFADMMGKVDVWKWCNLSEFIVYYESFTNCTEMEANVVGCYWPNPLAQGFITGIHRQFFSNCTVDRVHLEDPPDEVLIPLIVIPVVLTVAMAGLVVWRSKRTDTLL
# Experimental: (§1) The binding assay was performed using scintillation proximity assay (SPA) beads (RPNQ0001) from PerkinElmer and cell membranes from the Amylin 3(a)/CRE-luc cells (as described in Assay (II)) were used. Membranes were prepared in the following way; the cells were rinsed with PBS and incubated with Versene for approximately 5 min before harvesting. The cells were flushed with PBS and the cell-suspension was centrifuged for 5 min at 1000 rpm. Cells were homogenized (ultrathurrax) in a buffer containing 20 mM Na-HEPES and 10 mM EDTA (pH 7.4) and centrifuged at 20.000 rpm for 15 min. The resulting pellet was resuspended, homogenized and centrifuged (20.000 rpm, 15 min) in a buffer containing 20 mM Na-HEPES and 0.1 mM EDTA (pH 7.4, buffer 2). The resulting pellet was resuspended in buffer 2 and protein concentration was measured (BCA protein Assay, Pierce). The homogenate was kept cold during the whole procedure. The membranes were kept at −80° C. until use. The assay was performed in a 384 well Optiplate (PerkinElmer) in a total volume of 40 ul. Membranes were mixed with SPA beads. Final concentration of membranes 35 ng/μL final and SPA beads was 0.05 mg/well. Test-compounds were dissolved in DMSO and further diluted in assay buffer (50 mM Hepes, pH 7.4, 1 mM CaCl2, 5 mM MgCl₂, 0.1% OA and 0.02% Tween20). […] The final mixture was incubated with shaking at 400 rpm for 120 min at 25° C. prior to centrifugation (1500 rpm, 10 min). Samples were analyzed on TopCounter™ (Packard). The IC₅₀ was calculated using (one site binding competition analysis) GraphPad Prism5 as a measure of receptor affinity.
# [2] = target: T1, human amylin receptor (amylin 3(a) …); assay: as above; remark: listed apart in the source
# Experimental: as §1
# [3] = target: T2, human calcitonin receptor (human, UniProt P30988 25-474); assay: cell-based or functional assay
# T2 sequence (looked up): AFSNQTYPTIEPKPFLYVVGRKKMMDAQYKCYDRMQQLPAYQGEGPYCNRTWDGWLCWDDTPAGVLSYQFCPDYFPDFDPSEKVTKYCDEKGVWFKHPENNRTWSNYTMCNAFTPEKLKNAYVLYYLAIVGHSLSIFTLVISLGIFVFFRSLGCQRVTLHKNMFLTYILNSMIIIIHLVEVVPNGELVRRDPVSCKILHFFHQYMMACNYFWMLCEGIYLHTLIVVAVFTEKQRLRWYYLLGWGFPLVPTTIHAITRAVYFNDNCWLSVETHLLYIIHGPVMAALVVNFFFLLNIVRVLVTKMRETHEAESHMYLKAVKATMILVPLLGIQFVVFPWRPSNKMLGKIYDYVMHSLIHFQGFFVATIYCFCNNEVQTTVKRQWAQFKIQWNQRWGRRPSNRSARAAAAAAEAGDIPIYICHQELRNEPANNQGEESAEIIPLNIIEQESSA
# [4] = target: T1, human amylin receptor (amylin 3(a) …); assay: cell-based or functional assay
# [5] = target: T2, human calcitonin receptor; assay: cell-based or functional assay; remark: listed apart in the source
# [6] = target: T1, human amylin receptor (amylin 3(a) …); assay: cell-based or functional assay; remark: listed apart in the source
Binder,IC50 [1] [pM],IC50 [2] [pM],hCTR funct. EC50 (pM) [3] [pM],Ratio hCT/hAmylin funct. [4],hAmylin-R funct. EC50 (pM) [4] [pM],hCTR funct. EC50 (pM) [5] [pM],Ratio hCT/hAmylin funct. [6],hAmylin-R funct. EC50 (pM) [6] [pM]
"K([γGlu-C20 diacid])CNTATCATQRLANFLRHSSPNFGAIPSSTNVGSHTY-NH2 (disulfide 2-7; N-terminus assumed; SMILES CC[C@H](C)[C@H](NC(=O)[C@H](C)NC(=O)CNC(=O)[C@H](Cc1ccccc1)NC(=O)[C@H](CC(N)=O)NC(=O)[C@@H]1CCCN1C(=O)[C@H](CO)NC(=O)[C@H](CO)NC(=O)[C@H](Cc1c[nH]cn1)NC(=O)[C@H](CCCNC(=N)N)NC(=O)[C@H](CC(C)C)NC(=O)[C@H](Cc1ccccc1)NC(=O)[C@H](CC(N)=O)NC(=O)[C@H](C)NC(=O)[C@H](CC(C)C)NC(=O)[C@H](CCCNC(=N)N)NC(=O)[C@H](CCC(N)=O)NC(=O)[C@@H](NC(=O)[C@H](C)NC(=O)[C@@H]1CSSC[C@H](NC(=O)[C@@H](N)CCCCNC(=O)CC[C@H](NC(=O)CCCCCCCCCCCCCCCCCCC(=O)O)C(=O)O)C(=O)N[C@@H](CC(N)=O)C(=O)N[C@@H]([C@@H](C)O)C(=O)N[C@@H](C)C(=O)N[C@@H]([C@@H](C)O)C(=O)N1)[C@@H](C)O)C(=O)N1CCC[C@H]1C(=O)N[C@@H](CO)C(=O)N[C@@H](CO)C(=O)N[C@H](C(=O)N[C@@H](CC(N)=O)C(=O)N[C@H](C(=O)NCC(=O)N[C@@H](CO)C(=O)N[C@@H](Cc1c[nH]cn1)C(=O)N[C@H](C(=O)N[C@@H](Cc1ccc(O)cc1)C(N)=O)[C@@H](C)O)C(C)C)[C@@H](C)O, also called compound 60) [N^ε1-[(4S)-4-carboxy-4-(19-carboxynonadecanoylamino)butanoyl]-[Arg17,Pro21,Pro27,His35]-h-amylin]",695,695,5360,15.3,351,5360,15.3,351
K([γGlu-C20 diacid])CNTATCATQRLAEFLRHSSPNFGAIPSSTNVGPHTY-NH2 (disulfide 2-7),179,179,1450,–,101,1450,–,101
K([γGlu-γGlu-C20 diacid])CNTATCATQRLAEFLRHSSPNFGAIPSSTNVGPHTY-NH2 (disulfide 2-7 (inferred)),377,377,2830,–,172,2830,–,172
